This is an account of results in PMC4817256.

For the experiment, the target named is eukaryotic translation initiation factor 4E (human (endogenous in U2OS and HeLa)) (UniProt P06730). Kind of experiment: proximity ligation.
UniProt P06730, sequence (P06730 whole entry): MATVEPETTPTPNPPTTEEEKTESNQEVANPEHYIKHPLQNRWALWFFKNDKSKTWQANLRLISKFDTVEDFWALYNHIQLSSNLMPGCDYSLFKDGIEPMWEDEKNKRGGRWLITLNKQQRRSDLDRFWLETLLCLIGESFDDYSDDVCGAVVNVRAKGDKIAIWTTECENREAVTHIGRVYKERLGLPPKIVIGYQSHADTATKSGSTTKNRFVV

In turn, HIV-1 Gag-GFP (natural protein) came in with a PLA dots per cell (dots per cell) of 6.98.
